Reference: patent publication US20160250341A1 (Molecular Partners, published 2016)

Assays:
Experiment in all cases: SPR (ProteOn), DARPin captured by anti-RGS-His antibody, albumin injected
rat serum albumin = rat serum albumin (rat, UniProt P02770 25-608)
Experimental: (§1) DARPins with binding specificity for xSA were immobilized in a flow cell via their His-tag to coated α-RGS-His antibody (Qiagen, cat. no. 34650), and the interaction of human, cynomolgus monkey (cyno), mouse, rat, rabbit and dog serum albumin with the immobilized DARPins were analyzed.
(§2) SPR was measured using a ProteOn instrument (BioRad) and measurement was performed according standard procedures known to the person skilled in the art. The running buffer was PBS, pH 7.4, containing 0.01% Tween 20®. Anti-RGS-His antibody was covalently immobilized on a GLC chip (BioRad) to a level of about 2000 resonance units (RU). Immobilization of DARPins on the antibody coated chip was then performed by injecting 150 μl of 1 μM DARPin solution in 300 s (flow rate=30 μl/min). The interaction with serum albumin of the different species was then measured by injecting in 60 sec a volume of 100 μl running buffer (PBS containing 0.01% Tween®) containing a distinct serum albumin at a concentration of 400, 200, 100, 50 nM (on-rate measurement), followed by a running buffer flow for 10 to 30 minutes (flow rate=100 μl/min) (off-rate measurement). The signals (i.e. resonance unit (RU) values) of an uncoated reference cell and a reference injection (i.e. injection of running buffer only) were subtracted from the RU traces obtained after injection of the serum albumins (double-referencing). From the SRP traces obtained from the on-rate and off-rate measurements the on- and off-rate of the corresponding DARPin serum albumin interaction can be determined.
(§3) While human and cynomolgus monkey serum albumin are bound by all DARPins analyzed, rabbit, mouse, rat and dog serum albumin is only bound by a subset of these DARPins.

human serum albumin = target: T1, human serum albumin (human, UniProt P02768 25-609)
T1 construct: also called HSA
T1 sequence (P02768 25-609 limits assumed): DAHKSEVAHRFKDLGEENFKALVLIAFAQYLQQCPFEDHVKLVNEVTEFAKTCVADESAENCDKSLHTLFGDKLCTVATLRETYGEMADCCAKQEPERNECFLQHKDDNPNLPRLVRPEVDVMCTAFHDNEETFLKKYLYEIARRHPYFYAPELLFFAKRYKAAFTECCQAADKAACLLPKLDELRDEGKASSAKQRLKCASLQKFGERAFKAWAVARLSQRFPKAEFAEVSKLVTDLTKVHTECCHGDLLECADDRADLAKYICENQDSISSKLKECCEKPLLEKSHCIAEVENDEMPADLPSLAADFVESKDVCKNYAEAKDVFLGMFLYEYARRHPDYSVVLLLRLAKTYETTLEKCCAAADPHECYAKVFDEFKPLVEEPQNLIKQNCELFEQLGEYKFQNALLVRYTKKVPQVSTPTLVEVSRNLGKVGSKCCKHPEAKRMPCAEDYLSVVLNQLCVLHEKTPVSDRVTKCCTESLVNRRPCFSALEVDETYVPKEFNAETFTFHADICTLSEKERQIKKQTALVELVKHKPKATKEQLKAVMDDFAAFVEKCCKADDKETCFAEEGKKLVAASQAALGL
Experimental: as §1, §2, §3

rabbit serum albumin = rabbit serum albumin (rabbit, UniProt P49065 25-608)
Sequence of rabbit serum albumin (P49065 25-608 limits assumed): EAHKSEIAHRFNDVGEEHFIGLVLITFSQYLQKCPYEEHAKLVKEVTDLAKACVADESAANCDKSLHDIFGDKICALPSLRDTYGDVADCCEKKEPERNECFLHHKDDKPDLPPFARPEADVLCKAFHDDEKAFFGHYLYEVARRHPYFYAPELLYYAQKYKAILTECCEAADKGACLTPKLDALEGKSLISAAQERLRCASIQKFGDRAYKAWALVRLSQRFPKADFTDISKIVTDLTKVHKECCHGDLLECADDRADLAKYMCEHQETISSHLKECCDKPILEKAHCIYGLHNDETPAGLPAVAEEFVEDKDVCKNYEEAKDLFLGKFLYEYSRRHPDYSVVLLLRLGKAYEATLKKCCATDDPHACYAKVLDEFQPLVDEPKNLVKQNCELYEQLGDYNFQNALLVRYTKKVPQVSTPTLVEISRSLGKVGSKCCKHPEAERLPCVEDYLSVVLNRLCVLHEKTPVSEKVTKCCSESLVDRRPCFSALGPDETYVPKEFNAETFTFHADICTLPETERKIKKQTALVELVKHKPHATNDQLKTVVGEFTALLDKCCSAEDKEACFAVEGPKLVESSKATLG
Experimental: as §1, §2, §3

dog serum albumin = dog serum albumin (dog, UniProt P49822 25-608)
Sequence of dog serum albumin (P49822 25-608 limits assumed): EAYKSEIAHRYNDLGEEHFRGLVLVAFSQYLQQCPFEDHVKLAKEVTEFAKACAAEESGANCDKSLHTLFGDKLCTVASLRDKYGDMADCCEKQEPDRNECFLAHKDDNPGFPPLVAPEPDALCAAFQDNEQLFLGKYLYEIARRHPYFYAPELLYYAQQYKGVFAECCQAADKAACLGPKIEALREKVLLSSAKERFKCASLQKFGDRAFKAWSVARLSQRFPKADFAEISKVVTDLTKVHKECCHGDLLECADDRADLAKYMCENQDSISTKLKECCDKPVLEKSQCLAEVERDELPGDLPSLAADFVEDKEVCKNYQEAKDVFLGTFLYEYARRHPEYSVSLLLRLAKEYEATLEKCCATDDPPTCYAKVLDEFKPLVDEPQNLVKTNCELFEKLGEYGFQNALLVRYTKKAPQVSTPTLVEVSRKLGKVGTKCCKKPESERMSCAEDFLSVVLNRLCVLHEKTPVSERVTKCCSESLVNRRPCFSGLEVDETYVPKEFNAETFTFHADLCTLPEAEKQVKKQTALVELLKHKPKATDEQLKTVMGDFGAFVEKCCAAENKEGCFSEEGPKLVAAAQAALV
Experimental: as §1, §2, §3

[1] = target: T2, cynomolgus monkey serum albumin (cynomolgus monkey (macaca fascicularis), UniProt A2V9Z4 25-608)
T2 construct: also called CSA
T2 sequence (A2V9Z4 25-608 limits assumed): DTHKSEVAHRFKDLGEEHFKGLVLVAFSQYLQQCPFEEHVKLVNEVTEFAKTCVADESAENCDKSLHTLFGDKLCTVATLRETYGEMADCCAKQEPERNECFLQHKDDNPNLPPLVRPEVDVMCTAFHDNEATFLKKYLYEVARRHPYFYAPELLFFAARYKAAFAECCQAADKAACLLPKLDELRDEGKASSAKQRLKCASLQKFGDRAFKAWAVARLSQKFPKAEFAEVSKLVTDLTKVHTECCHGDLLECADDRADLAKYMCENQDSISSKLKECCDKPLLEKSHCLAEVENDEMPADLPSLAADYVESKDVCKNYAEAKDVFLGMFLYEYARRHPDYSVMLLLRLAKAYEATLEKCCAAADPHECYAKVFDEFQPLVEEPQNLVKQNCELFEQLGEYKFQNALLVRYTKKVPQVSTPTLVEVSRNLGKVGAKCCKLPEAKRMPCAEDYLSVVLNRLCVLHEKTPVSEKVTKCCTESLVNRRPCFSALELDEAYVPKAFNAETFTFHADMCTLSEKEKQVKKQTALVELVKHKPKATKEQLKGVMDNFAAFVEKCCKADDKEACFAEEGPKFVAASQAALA
Experimental: as §1, §2, §3

mouse serum albumin = target: T3, mouse serum albumin (mouse, UniProt P07724 25-608)
T3 construct: also called MSA
Experimental: as §1, §2, §3

Sequence of rat serum albumin (P02770 25-608 limits assumed): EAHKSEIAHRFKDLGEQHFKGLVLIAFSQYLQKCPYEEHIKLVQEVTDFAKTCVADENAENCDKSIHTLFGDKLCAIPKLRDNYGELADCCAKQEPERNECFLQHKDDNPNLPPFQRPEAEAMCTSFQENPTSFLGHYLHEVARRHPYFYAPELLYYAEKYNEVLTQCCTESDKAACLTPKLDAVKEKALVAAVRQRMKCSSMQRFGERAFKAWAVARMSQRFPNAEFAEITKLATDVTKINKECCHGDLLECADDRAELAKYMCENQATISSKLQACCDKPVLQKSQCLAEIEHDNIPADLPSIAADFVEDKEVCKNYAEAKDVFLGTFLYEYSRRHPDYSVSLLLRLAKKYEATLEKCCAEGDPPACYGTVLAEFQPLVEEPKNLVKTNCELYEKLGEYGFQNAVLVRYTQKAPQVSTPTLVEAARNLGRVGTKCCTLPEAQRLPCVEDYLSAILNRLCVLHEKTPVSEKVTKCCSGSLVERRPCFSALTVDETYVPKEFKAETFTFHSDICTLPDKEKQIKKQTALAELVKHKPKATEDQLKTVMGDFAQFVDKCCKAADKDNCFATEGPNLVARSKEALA

Row | Binder | binding result (rat serum albumin) | Kd (human serum albumin) | Kd (rabbit serum albumin) | binding result (dog serum albumin) | Kd [1] | binding result (mouse serum albumin) | Kd (rat serum albumin) | binding result (rabbit serum albumin) | Kd (dog serum albumin) | Kd (mouse serum albumin)
1 | DARPin #29 (designed binder) MRGSHHHHHHGSDLDKKLLEAARAGQDDEVRILMANGADVNAKDERGTTPLHLAAVYGHLEIVEVLLKAGADVNAKNETGYTPLHLADSSGHLEIVEVLLKHGADVNAQDKSGKTPADLAADAGHEDIAEVLQKLN | no binding (tested: up to 400 nM) | 15 nM | 17 nM | no binding (tested: up to 400 nM) | 7 nM | no binding (tested: up to 400 nM) | – | – | – | –
2 | DARPin #27 (designed binder) MRGSHHHHHHGSDLDKKLLEAARAGQDDEVRILMANGADVNAKDERGTTPLHLAAVYGHLEIVEVLLKAGADVNAKNETGYTPLHLADSSGHLEIVEVLLKAGADVNAQDKSGKTPADLAADAGHEDIAEVLQKLN | no binding (tested: up to 400 nM) | 11 nM | 19 nM | no binding (tested: up to 400 nM) | 6 nM | no binding (tested: up to 400 nM) | – | – | – | –
3 | DARPin #20 (designed binder) MRGSHHHHHHGSDLDKKLLEAARAGQDDEVRILMANGADVNAKDYFSHTPLHLAARNGHLKIVEVLLKAGADVNAKDFAGKTPLHLAANDGHLEIVEVLLKHGADVNAQDIFGKTPADIAADAGHEDIAEVLQKLN | – | 27 nM | – | – | 110 nM | – | 242 nM | no binding (tested: up to 400 nM) | 185 nM | 124 nM
4 | DARPin #43 (designed binder) MRGSHHHHHHGSDLGKKLLEAARAGQDDEVRILLKAGADVNAKDYFSHTPLHLAARNGHLKIVEVLLKAGADVNAKDFAGKTPLHLAANDGHLEIVEVLLKHGADVNAQDIFGKTPADIAADAGHEDIAEVLQKLN | – | 30 nM | – | – | – | – | – | – | – | –
5 | DARPin #45 (designed binder) MRGSHHHHHHGSDLGKKLLEAARAGQDDEVRILLKAGADVNAKDYFSHTPLHLAARNGHLKIVEVLLKAGADVNAKDFAGKTPLHLAANDGHLEIVEVLLKAGADVNAQDIFGKTPADIAADAGHEDIAEVLQKLN | – | 35 nM | – | – | – | – | – | – | – | –
6 | DARPin #48 (designed binder) MRGSHHHHHHGSDLDKKLLEAARAGQDDEVRELLKAGADVNAKDYFSHTPLHLAARNGHLKIVEVLLKAGADVNAKDFAGKTPLHLAANDGHLEIVEVLLKAGADVNAQDIFGKTPADIAADAGHEDIAEVLQKLN | – | 68 nM | – | – | – | – | – | – | – | –
7 | DARPin #21 (designed binder) MRGSHHHHHHGSDLDKKLLEAARAGQDDEVRILMANGADVNAKDYFSHTPLHLAARNGHLEIVEVLLKAGADVNAKDFAGKTPLHLAANDGHLEIVEVLLKHGADVNAQDIFGKTPADIAADAGHEDIAEVLQKLN | – | 26 nM | – | – | 110 nM | – | 266 nM | no binding (tested: up to 400 nM) | 180 nM | 142 nM
8 | DARPin #47 (designed binder) MRGSHHHHHHGSDLDKKLLEAARAGQDDEVRILLKAGADVNAKDYFSHTPLHLAARNGHLKIVEVLLKAGADVNAKDFAGKTPLHLAANDGHLEIVEVLLKAGADVNAQDIFGKTPADIAADAGHEDIAEVLQKLN | – | 96 nM | – | – | – | – | – | – | – | –
9 | DARPin #19 (designed binder) MRGSHHHHHHGSDLGKKLLEAARAGQDDEVRILMANGADVNAKDYFSHTPLHLAARNGHLKIVEVLLKAGADVNAKDFAGKTPLHLAANDGHLEIVEVLLKHGADVNAQDIFGKTPADIAADAGHEDIAEVLQKLN | – | 14 nM | – | – | 63 nM | – | 91 nM | no binding (tested: up to 400 nM) | 77 nM | 56 nM

More lines, in order of falling Kd (human serum albumin), values ahead:

Row | binding result (rat serum albumin) | Kd (human serum albumin) | Kd (rabbit serum albumin) | binding result (dog serum albumin) | Kd [1] | binding result (mouse serum albumin) | Kd (rat serum albumin) | binding result (rabbit serum albumin) | Kd (dog serum albumin) | Kd (mouse serum albumin) | Binder
10 | – | 43 nM | – | – | – | – | – | – | – | – | DARPin #46 (designed binder) MRGSHHHHHHGSDLGKKLLEAARAGQDDEVRELLKAGADVNAKDYFSHTPLHLAARNGHLKIVEVLLKAGADVNAKDFAGKTPLHLAANDGHLEIVEVLLKAGADVNAQDIFGKTPADIAADAGHEDIAEVLQKLN
11 | – | 39 nM | – | – | – | – | – | – | – | – | DARPin #44 (designed binder) MRGSHHHHHHGSDLGKKLLEAARAGQDDEVRELLKAGADVNAKDYFSHTPLHLAARNGHLKIVEVLLKAGADVNAKDFAGKTPLHLAANDGHLEIVEVLLKHGADVNAQDIFGKTPADIAADAGHEDIAEVLQKLN
12 | – | 13 nM | – | – | 74 nM | – | 109 nM | no binding (tested: up to 400 nM) | 81 nM | 68 nM | DARPin #22 (designed binder) MRGSHHHHHHGSDLGKKLLEAARAGQDDEVRILMANGADVNAKDYFSHTPLHLAARNGHLEIVEVLLKAGADVNAKDFAGKTPLHLAANDGHLEIVEVLLKHGADVNAQDIFGKTPADIAADAGHEDIAEVLQKLN
13 | no binding (tested: up to 400 nM) | 7 nM | 8 nM | no binding (tested: up to 400 nM) | 4 nM | no binding (tested: up to 400 nM) | – | – | – | – | DARPin #30 (designed binder) MRGSHHHHHHGSDLDKKLLEAARAGQDDEVRILMANGADVNAKDERGTTPLHLAAVYGHLEIVEVLLKAGADVNAKNETGYTPLHLADSSGHLEIVEVLLKASADVNAQDKSGKTPADLAADAGHEDIAEVLQKLN
14 | no binding (tested: up to 400 nM) | 6 nM | 9 nM | no binding (tested: up to 400 nM) | 3 nM | no binding (tested: up to 400 nM) | – | – | – | – | DARPin #28 (designed binder) MRGSHHHHHHGSDLDKKLLEAARAGQDDEVRILMANGADVNAKDERGTTPLHLAAVYGHLEIVEVLLKAGADVNAKNETGYTPLHLADSSGHLEIVEVLLKHSADVNAQDKSGKTPADLAADAGHEDIAEVLQKLN
